Target: PD-1-mFc (人PD-1胞外区加Fc纯化标签) (human) (UniProt Q15116)
Experiment: ELISA of the subclone's supernatant on plate-coated PD-1 antigen

Chain of UniProt Q15116 (Q15116 25-170): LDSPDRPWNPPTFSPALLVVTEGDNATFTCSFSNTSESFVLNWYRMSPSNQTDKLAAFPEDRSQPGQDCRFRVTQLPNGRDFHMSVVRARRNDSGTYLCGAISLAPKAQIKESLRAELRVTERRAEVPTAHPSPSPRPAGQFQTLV

B1: 抗PD-1鼠源单克隆抗体 (阳性克隆2G8-1N8) (antibody, V domains shown)
VH: EVKLVESGGGLVKPGGSLKLSCAASGFTFSSYGMSWVRQTPEKRLEWVATISGGGSYTYYPDSVKGRFTISRDNAKNNLYLQMSSLRSEDTALYYCASRFGEAWFAYWGQGTLVTVSA
VL: DIKMTQSPSSMYASLGERVTITCKASQDINSYLSWFQQKPGKSPKTLIYRANRLVDGVPSRFSGSGSGQDYSLTISSLEYEDMGIYYCLQYDEFPLTFGAGTKLELK
OD值: 1.02 OD
